Paper PMC3666333 (Nature communications, 2013)

Molecular target: the molecule itself
Experiment: SAXS titration

B1: Gp4D (residues 241-566, 36-kDa), minimal fragment of the T7 gene 4 helicase that forms hexameric rings (domain or fragment, bacteriophage T7, UniProt P03692 241-566, looked up)
chain: CHLNGHDREIMEQVWNAGPWIPDGVVSALSLRERIREHLSSEESVGLLFSGCTGINDKTLGARGGEVIMVTSGSGMGKSTFVRQQALQWGTAMGKKVGLAMLEESVEETAEDLIGLHNRVRLRQSDSLKREIIENGKFDQWFDELFGNDTFHLYDSFAEAETDRLLAKLAYMRSGLGCDVIILDHISIVVSASGESDERKMIDNLMTKLKGFAKSTGVVLVVICHLKNPDKGKAHEEGRPVSITDLRGSGALRQLSDTIIALERNQQGDMPNLVLVRILKCRFTGDTGIAGYMEYNKETGWLEPSSYSGEEESHSESTDWSNDTDF
**Q.** Does B1 bind?
**A.** binds
